These results are taken from article PMC8185224 (EBioMedicine, 2021).

The data set concerns the molecule itself. In words: SEC; Superdex75 column in 20 mM sodium phosphate buffer, pH 8.0; last step of the purification. (Size exclusion chromatography separates by hydrodynamic size, large species first.)

B1: recombinant murine D-dopachrome tautomerase (natural protein, UniProt O35215 1-118, looked up)
chain: MPFVELETNLPASRIPAGLENRLCAATATILDKPEDRVSVTIRPGMTLLMNKSTEPCAHLLVSSIGVVGTAEQNRTHSASFFKFLTEELSLDQDRIVIRFFPLEAWQIGKKGTVMTFL
notes: D-dopachrome tautomerase (DDT), murine; also called rmDDT; murine DDT; source: E. coli BL21(DE3), pET20b(+), purified (Q sepharose, phenyl sepharose, Superdex75 SEC)
In the case of B1, the stoichiometry N – broadly, the number of molecules, sites or subunits per partner or assembly – is 3.

B2: recombinant human D-dopachrome tautomerase (natural protein, UniProt P30046 1-118, looked up)
chain: MPFLELDTNLPANRVPAGLEKRLCAAAASILGKPADRVNVTVRPGLAMALSGSTEPCAQLSISSIGVVGTAEDNRSHSAHFFEFLTKELALGQDRILIRFFPLESWQIGKIGTVMTFL
notes: D-dopachrome tautomerase (DDT), human; The protein was active as a tautomerase, so the initiator methionine is probably removed (surmise); also called rhDDT; DDT; source: E. coli BL21(DE3), pET20b(+), purified (Q sepharose, phenyl sepharose, Superdex75 SEC)
Regarding B2, the “stoichiometry N” value worked out at 3.
